{
  "source": "patent US20220089776A1",
  "about": "(OREGON HEALTH AND SCIENCE UNIVERSITY, published 2022)",
  "key": {"pig FXII": {"molecular_target": "T1, pig FXII (pig, UniProt O97507 20-616)", "T1 construct": "mature; Plasma protein", "T1 sequence (looked up)": "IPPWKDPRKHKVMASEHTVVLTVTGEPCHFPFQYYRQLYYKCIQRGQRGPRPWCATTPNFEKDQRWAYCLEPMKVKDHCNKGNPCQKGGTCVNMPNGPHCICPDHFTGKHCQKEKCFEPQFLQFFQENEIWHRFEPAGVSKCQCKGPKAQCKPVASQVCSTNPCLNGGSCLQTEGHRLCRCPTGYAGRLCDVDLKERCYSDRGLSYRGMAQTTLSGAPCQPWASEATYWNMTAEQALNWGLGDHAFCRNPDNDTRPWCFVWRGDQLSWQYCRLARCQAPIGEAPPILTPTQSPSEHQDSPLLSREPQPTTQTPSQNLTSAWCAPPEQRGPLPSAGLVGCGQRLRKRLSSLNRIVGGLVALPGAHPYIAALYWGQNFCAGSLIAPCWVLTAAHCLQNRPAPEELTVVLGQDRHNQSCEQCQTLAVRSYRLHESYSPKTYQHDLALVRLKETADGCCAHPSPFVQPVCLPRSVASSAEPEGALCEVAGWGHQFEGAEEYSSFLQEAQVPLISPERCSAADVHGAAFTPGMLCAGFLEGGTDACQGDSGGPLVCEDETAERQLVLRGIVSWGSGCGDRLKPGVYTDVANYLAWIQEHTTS", "assay": "Western blot of platelet-poor plasma; primary antibody murine 5C12", "source_text": "(§1) FIG. 3A-3C: Species specificity of 5C12. (FIG. 3A) Western blots of platelet poor plasmas from different species (indicated above each lane) size fractionated by SDS-PAGE […]. Species included in alphabetical order: African green monkey, baboon, beagle, cat, cattle, chicken, cynomolgus monkey, dog, elephant, giant anteater, horse, human, human deficient in FXII, llama, marmoset, pig, rabbit, raccoon, rat, red kangaroo, rhesus macaque and tiger. Human plasma and human deficient in FXII plasma were used in all gels as a positive and negative control, respectively. […] 5C12 also recognizes both the alpha (comprising both the light and heavy chain of FXII) and the beta (comprising only the light chain and a nonapeptide fragment of the heavy chain) form of activated FXII (FXIIa) (FIG. 3C). The primary antibody for all Western blots was murine 5C12, the secondary antibody was goat-anti-mouse polyclonal."}, "rhesus macaque FXII": {"molecular_target": "T2, rhesus macaque FXII (rhesus macaque, UniProt F7FY72 20-615)", "T2 construct": "Plasma protein", "T2 sequence": "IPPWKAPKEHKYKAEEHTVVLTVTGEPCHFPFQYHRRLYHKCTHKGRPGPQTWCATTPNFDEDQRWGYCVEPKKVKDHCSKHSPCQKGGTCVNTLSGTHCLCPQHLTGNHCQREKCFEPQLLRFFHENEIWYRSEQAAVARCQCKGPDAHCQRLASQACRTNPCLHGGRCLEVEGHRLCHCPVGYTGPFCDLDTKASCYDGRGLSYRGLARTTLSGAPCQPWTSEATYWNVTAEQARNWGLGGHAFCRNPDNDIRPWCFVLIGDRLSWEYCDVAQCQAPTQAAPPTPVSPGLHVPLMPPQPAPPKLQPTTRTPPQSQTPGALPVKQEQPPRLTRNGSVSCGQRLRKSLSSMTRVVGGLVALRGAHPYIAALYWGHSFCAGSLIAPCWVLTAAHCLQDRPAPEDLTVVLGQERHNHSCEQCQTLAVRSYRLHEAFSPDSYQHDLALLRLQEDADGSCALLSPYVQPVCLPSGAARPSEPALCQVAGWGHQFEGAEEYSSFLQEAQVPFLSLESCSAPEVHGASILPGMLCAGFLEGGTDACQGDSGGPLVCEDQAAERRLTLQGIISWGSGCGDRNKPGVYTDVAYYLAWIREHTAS", "assay": "Western blot of platelet-poor plasma; primary antibody murine 5C12", "source_text": "as §1"}, "cattle FXII": {"molecular_target": "T3, cattle FXII (cattle, UniProt P98140 20-612)", "T3 construct": "mature; Plasma protein", "T3 sequence (looked up)": "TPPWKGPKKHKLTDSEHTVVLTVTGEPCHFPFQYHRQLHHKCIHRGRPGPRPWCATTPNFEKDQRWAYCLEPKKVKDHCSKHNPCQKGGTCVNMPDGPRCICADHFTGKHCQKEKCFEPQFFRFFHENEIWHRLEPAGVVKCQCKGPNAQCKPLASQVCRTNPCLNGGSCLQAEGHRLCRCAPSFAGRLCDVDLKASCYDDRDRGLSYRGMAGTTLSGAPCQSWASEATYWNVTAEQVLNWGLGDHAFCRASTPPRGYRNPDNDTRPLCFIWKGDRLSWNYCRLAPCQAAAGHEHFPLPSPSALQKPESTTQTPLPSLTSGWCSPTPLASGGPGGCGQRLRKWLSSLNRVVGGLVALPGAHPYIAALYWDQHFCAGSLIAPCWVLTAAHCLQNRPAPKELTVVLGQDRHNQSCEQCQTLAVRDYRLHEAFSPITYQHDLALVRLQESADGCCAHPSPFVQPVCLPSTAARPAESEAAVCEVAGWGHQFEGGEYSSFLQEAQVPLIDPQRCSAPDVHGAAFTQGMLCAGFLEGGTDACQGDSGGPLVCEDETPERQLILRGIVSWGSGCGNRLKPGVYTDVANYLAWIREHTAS", "assay": "Western blot of platelet-poor plasma; primary antibody murine 5C12", "source_text": "as §1"}, "[1]": {"molecular_target": "T4, human blood protein factor XII (FXII) (human, UniProt P00748 20-615)", "T4 sequence (looked up)": "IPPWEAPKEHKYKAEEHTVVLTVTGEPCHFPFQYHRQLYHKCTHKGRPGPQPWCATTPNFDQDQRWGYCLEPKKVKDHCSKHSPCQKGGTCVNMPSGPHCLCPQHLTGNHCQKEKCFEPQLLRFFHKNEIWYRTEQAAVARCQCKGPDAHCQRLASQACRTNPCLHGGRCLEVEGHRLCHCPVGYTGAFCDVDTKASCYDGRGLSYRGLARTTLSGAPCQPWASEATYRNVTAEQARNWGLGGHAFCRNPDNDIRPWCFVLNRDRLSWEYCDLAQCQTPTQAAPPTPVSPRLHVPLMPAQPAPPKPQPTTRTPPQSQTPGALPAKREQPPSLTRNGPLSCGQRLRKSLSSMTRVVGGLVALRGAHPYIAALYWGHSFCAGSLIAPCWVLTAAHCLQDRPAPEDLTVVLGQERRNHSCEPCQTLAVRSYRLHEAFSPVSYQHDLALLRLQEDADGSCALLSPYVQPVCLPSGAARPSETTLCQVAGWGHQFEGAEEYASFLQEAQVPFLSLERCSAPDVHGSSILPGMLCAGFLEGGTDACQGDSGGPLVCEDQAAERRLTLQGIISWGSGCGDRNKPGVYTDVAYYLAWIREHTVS", "assay": "cell-based or functional assay"}},
  "data": [
    {"binder": "mouse monoclonal antibody 5C12 (antibody, mouse IgG1, kappa, V domains shown, Purified from hybridoma; also called AB053; 5C12 MAb) VH: DVQLQESGPDLVKPSQSLSLTCTVTGYSITSGYSWHWIRQFPGNNLEWMGYIQYSGNTNSNPSLKSRISITRDTSKNQFFLHLNSVTTEDTATYYCARWGSFDYWGQGTTLTVSS VL: QIVLTQSPAIMSASPGEKVTMTCSASSSVNYMHWYQQKSGTSPKRWIYDTSKLASGVPARFSGSGSGTSYSLTISSMEAGDAATYYCQQWSGNPPTFGGGTILEIKR", "values": [
      {"measurement": "binding result", "setting": "pig FXII", "value": "no binding"},
      {"measurement": "binding result", "setting": "rhesus macaque FXII", "value": "no binding"},
      {"measurement": "binding result", "setting": "cattle FXII", "value": "no binding"},
      {"measurement": "IC50 (read off the curve): FXIIa amidolytic activity after activation of 40 nM FXII with 1 µg/ml dextran sulfate", "setting": "[1]", "value": "~6", "unit": "nM"}
    ]}
  ]
}
